No end group written: not given here.
Assays:
Assay in all cases: Kinase Profiling Assay
Type in all cases: biochemical
Conditions in all cases: peptide 100 μM
Aurora-B(h) = Aurora-B(h) (Homo sapiens, UniProt Q96GD4)
Description: (§1) Every kinase activity measurement was conducted in duplicate.
(§2) Specifically, in these assays, a positively charged substrate is phosphorylated with a radiolabeled phosphate group from an ATP if the kinase is not inhibited by an inhibitor peptide. The positively charged substrate then is attracted to a negatively charged filter membrane, quantified with a scintillation counter, and compared to a 100% activity control.
(§3) In addition to determining the IC50 of the compound, the specificity of MK2 inhibitory peptides was assessed by examining activities of all 266 human kinases available for testing in the Millipore kinase profiling service (Table 1).

CDK6/cyclinD3(h) = CDK6/cyclinD3(h) (Homo sapiens, UniProt Q00534)
Description: as §1, §2, §3

Flt3(h) = Flt3(h) (Homo sapiens, UniProt P36888)
Description: as §1, §2, §3

PDGFRβ(h) = PDGFRβ(h) (Homo sapiens, UniProt P09619)
Description: as §1, §2, §3

EphB2(h) = biological target: T1, EphB2(h) (Homo sapiens, UniProt P29323)
T1 sequence (P29323 19-1055): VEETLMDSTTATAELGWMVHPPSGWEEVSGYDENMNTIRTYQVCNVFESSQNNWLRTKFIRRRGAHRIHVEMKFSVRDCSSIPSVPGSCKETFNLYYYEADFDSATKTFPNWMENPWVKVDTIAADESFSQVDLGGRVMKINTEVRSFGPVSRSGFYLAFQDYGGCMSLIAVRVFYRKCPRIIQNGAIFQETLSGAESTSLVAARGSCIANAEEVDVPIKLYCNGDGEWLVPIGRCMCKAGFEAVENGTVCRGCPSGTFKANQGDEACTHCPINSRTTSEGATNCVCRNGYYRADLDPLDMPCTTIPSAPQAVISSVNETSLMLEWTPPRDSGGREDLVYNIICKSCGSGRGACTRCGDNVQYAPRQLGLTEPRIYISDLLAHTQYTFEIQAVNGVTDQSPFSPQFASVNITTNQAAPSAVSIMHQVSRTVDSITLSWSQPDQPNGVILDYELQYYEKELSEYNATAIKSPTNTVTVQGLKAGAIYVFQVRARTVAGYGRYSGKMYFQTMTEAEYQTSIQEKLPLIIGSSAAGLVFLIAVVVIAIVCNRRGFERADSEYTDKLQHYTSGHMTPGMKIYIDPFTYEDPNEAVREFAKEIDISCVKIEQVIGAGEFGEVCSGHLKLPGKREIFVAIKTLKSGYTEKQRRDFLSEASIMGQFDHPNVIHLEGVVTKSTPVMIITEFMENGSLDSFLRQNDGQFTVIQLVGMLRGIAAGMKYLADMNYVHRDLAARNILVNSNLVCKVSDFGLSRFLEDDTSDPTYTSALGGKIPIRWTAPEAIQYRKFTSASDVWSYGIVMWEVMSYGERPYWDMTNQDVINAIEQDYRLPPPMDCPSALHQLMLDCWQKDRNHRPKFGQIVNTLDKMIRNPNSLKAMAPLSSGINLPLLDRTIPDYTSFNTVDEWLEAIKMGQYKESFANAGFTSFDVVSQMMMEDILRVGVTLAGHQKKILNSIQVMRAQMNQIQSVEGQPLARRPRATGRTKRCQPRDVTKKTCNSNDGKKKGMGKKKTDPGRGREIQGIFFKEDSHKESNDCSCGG
Description: as §1, §2, §3

ROCK-I(h) = ROCK-I(h) (Homo sapiens, UniProt Q13464)
Description: as §1, §2, §3

BrSK1(h) = biological target: T2, BrSK1(h) (Homo sapiens, UniProt Q8TDC3)
T2 sequence (Q8TDC3 1-778): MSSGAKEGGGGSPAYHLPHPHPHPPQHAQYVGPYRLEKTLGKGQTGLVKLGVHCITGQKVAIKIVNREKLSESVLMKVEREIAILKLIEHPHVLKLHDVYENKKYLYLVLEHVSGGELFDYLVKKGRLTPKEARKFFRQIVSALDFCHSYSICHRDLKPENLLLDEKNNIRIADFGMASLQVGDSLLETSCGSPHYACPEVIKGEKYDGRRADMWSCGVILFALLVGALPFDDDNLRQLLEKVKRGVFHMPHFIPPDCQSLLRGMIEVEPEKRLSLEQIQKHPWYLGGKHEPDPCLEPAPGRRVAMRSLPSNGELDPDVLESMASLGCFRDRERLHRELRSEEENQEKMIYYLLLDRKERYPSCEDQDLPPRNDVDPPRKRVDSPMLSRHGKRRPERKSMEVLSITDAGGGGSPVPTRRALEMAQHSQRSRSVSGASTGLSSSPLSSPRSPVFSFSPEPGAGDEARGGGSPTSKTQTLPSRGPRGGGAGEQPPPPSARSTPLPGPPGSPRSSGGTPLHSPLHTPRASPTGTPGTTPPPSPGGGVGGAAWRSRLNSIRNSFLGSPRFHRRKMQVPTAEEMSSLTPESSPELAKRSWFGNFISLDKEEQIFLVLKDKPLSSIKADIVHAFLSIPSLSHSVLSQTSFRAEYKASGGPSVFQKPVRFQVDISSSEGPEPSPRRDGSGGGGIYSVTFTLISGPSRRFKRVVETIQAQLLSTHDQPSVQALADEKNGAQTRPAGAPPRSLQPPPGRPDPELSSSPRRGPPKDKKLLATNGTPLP
Description: as §1, §2, §3

PKCη(h) = PKCη(h) (Homo sapiens, UniProt P24723)
Description: as §1, §2, §3

Chain of CDK6/cyclinD3(h) (Q00534 whole entry): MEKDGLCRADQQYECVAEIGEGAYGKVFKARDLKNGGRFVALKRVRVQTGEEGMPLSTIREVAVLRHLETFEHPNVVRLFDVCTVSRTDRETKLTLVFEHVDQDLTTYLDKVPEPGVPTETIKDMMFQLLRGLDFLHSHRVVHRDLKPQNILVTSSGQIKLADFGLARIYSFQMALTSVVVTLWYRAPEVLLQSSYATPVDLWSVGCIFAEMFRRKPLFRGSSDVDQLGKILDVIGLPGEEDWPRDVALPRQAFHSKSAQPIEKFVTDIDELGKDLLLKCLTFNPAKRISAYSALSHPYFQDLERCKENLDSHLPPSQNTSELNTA
Chain of CDK6/cyclinD3(h) (P30281 whole entry partner): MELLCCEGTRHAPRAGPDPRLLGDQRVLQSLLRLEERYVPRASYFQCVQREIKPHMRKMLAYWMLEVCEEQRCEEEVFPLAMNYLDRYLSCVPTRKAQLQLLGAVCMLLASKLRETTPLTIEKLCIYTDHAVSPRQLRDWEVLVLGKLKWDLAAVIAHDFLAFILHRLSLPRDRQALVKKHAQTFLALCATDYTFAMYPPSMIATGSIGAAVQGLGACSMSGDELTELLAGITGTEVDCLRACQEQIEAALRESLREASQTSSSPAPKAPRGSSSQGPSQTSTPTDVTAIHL
Chain of PKCη(h) (P24723 whole entry): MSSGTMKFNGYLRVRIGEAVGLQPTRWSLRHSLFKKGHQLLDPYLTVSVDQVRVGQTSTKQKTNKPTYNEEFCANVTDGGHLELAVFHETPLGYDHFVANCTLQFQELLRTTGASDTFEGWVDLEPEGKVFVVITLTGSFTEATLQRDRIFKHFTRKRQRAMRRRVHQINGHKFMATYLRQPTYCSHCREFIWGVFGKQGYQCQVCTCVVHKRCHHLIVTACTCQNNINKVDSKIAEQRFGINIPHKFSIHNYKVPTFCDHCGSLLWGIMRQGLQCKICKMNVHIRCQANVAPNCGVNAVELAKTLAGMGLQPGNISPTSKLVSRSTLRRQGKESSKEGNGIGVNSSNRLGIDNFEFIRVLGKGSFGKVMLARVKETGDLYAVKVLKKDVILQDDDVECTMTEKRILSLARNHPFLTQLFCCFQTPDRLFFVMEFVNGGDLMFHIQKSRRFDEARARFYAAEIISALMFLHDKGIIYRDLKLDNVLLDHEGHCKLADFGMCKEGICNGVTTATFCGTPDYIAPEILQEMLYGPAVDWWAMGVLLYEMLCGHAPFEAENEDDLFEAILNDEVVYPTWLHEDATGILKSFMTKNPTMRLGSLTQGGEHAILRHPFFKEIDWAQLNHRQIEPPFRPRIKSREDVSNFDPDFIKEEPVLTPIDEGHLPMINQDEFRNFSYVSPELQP
Chain of PDGFRβ(h) (P09619 33-1106): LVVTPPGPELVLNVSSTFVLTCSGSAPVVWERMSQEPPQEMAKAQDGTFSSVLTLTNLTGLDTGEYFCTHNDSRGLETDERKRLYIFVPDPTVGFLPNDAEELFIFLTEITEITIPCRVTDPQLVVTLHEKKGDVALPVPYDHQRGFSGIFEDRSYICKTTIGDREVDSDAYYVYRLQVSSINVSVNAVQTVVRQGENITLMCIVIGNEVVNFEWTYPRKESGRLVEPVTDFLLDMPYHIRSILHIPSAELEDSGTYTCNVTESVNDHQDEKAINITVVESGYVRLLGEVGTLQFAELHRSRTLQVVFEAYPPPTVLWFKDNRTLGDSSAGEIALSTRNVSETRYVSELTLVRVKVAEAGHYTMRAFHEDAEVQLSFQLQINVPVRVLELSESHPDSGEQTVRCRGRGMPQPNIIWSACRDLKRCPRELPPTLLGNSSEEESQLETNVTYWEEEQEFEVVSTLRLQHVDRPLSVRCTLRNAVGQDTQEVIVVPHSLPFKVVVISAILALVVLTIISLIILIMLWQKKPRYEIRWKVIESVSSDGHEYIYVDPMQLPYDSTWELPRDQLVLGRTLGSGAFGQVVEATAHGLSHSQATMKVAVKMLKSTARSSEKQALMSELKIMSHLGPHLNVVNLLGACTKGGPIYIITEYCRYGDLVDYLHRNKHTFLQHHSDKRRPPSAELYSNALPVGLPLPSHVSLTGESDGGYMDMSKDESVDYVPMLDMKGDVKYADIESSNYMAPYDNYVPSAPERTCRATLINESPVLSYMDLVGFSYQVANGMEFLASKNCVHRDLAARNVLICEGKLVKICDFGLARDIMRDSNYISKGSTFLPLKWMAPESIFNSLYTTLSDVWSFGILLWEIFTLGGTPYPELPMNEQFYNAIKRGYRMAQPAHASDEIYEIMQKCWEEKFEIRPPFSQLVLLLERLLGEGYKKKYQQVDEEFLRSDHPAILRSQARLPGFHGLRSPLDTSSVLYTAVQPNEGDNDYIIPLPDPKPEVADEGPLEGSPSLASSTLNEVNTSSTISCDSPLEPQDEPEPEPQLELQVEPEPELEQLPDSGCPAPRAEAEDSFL
Chain of Aurora-B(h) (Q96GD4 whole entry): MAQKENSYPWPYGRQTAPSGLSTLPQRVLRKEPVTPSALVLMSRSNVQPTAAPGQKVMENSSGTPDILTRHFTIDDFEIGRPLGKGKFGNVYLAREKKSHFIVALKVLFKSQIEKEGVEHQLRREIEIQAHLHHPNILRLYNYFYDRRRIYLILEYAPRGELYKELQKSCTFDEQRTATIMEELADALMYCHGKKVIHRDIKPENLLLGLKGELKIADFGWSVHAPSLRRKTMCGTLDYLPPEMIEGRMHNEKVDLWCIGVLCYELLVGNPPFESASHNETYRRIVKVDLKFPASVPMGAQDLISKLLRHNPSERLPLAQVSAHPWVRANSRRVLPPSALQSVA
Chain of ROCK-I(h) (Q13464 whole entry): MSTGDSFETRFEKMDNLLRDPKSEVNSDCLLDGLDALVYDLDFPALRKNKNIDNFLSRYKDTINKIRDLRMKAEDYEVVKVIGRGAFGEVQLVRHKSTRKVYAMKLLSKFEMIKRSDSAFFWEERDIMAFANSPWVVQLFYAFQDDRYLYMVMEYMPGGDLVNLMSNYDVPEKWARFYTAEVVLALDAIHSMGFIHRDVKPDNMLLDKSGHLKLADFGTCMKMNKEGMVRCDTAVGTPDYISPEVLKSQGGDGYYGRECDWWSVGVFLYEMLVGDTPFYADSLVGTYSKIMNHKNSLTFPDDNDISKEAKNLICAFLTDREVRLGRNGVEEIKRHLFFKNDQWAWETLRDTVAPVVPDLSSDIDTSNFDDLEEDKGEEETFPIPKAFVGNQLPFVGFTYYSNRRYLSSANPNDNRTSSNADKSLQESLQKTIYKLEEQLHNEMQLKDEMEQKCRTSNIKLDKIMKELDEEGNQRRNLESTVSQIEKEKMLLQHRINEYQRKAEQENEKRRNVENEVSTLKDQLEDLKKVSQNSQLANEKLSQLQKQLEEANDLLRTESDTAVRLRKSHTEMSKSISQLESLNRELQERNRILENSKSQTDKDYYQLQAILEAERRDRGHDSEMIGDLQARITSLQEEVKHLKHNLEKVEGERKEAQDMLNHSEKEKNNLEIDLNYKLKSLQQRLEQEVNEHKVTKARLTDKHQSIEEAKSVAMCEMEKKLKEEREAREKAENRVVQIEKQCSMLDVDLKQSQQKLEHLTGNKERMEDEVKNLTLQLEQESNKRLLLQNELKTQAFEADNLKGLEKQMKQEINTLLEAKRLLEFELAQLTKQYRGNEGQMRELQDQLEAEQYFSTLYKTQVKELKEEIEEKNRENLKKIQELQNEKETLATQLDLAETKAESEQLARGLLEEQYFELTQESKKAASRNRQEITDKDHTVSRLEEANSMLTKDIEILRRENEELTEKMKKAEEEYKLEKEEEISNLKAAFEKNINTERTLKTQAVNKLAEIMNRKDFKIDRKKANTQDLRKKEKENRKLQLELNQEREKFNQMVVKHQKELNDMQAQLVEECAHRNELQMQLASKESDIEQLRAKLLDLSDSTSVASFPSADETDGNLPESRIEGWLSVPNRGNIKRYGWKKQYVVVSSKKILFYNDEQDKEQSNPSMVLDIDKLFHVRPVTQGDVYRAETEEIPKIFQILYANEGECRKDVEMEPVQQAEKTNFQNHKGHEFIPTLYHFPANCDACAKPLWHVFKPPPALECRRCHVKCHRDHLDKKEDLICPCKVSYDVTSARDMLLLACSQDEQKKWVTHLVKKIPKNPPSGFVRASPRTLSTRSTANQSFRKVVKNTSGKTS

Sequence | % activity (Aurora-B(h)) [%] | % activity (CDK6/cyclinD3(h)) [%] | % activity (Flt3(h)) [%] | % activity (PDGFRβ(h)) [%] | % activity (EphB2(h)) [%] | % activity (ROCK-I(h)) [%] | % activity (BrSK1(h)) [%] | % activity (PKCη(h)) [%]
FAKLAARLYRKALARQLGVAA [MMI-0300] | 128 | 86 | 84 | 81 | 18 | 79 | 67 | 
HRRIKAWLKKIKALARQLGVAA (Mammal) [MMI-0500] | 5 | 23 | 17 | 40 | 70 | 17 | 72 | 45
KAFAKLAARLYRKALARQLGVAA [MMI-0400] | 150 | 85 | 18 | 53 | 22 | 73 | 76 | 98
YARAAARQARAKALARQLGVAA [MMI-0100] |  |  |  |  | 68 |  | 100 | 
YARAAARQARAKALNRQLGVA (Mammal) [MMI-0200] | 166 | 100 | 99 | 137 | 128 |  | 93 | 101
